Experimental data reported in patent publication US20100138945A1 (FEMTA PHARMACEUTICALS, published 2010).
Positions count from the first letter of the chain named.

B1: Anti-IL-6 Ab BA802 (antibody, V domains shown)
VH: QVQLVQSGAEVKKPGASVKVSCKASGFTFSSFAMSWIRQSPSRGLEWLGEISSGGSYTYYPDTVTGRFTISRDNAKNSLYLQMNSLRAEDTAVYYCARGLWGYYALDYWGQG
VL: EIVLTQSPDFQSVTPKEKVTITCSASSSVSYMYWYLQKPGQSPQLLIYDTSNLASGVPSRFSGSGSGTDFTLTISSLQPEDFATYYCQQWSGYPYTFGQG
notes: Humanized monoclonal antibody
B2: Anti-IL-6 Ab BA808 (antibody, V domains shown)
VH: B1 VH
VL: EIVLTQSPATLSVSPGERATLSCSASSSVSYMYWYLQKPGQSPQLLIYDTSNLASGIPPRFSGSGYGTDFTLTINNIESEDAAYYFCQQWSGYPYTFGQG
notes: Humanized monoclonal antibody
B3: Anti-IL-6 Ab BA840 (antibody, V domains shown)
VH: B1 VH with S40P, S42G, R43K, L48I
VL: B2 VL with A9D, T10F, L11Q, S14T, G16K, R18K, A19V, L21I, S22T
notes: Humanized monoclonal antibody
B4: Anti-IL-6 Ab BA848 (antibody, V domains shown)
VH: B1 VH with Q1E, I37V, S40A, S42G, R43Q, L48M
VL: AIQLTQSPSSLSASVGDRVTITCSASSSVSYMYWYQQKPGQAPRLLIYDTSNLASGIPPRFSGSGYGTDFTLTINNIESEDAAYYFCQQWSGYPYTFGQG
notes: Humanized monoclonal antibody
B5: Anti-IL-6 Ab BA890 (antibody, V domains shown)
VH: B1 VH with S40P, S42G, R43K, L48I
VL: B4 VL
notes: Humanized monoclonal antibody
B6: Anti-IL-6 Ab BA939 (antibody, V domains shown)
VH: B1 VH with I37V, S40A, S42G, R43Q, L48M
VL: B4 VL with A1D, L4M
notes: Humanized monoclonal antibody
B7: Clone BA399-09 (antibody, V domains shown)
VH: B1 VH with A33S, T58H, L100Q
VL: B4 VL with S24Y, S51L
notes: also called BA399-9; BA399 clone #9
B8: Clone BA399-02 (antibody, V domains shown)
VH: B1 VH with A33S, V64K, L100Q
VL: B4 VL with S24Y
notes: also called BA399-2; BA399 clone #2
B9: Clone BA399-05 (antibody, V domains shown)
VH: B1 VH with V64K, L100Q
VL: B4 VL with S24Y, Q89D
notes: also called BA399-5
B10: BA399_CPS_10 (antibody, V domains shown)
VH: B1 VH with G26H, A33S, T58H, L100Q
VL: B4 VL with S24Y, S51L
notes: also called Clone BA399-10; BA399_10
B11: BA399_CPS_04 (antibody, V domains shown)
VH: B1 VH with A33S, L100Q
VL: B4 VL with Q89D
notes: also called Clone BA399-04; BA399_04
B12: BA399_CPS_03 (antibody, V domains shown)
VH: B1 VH with G26H, T58H, L100Q
VL: B4 VL with S51L
notes: also called Clone BA399-03; BA399_03
B13: BA399_CPS_01 (antibody, V domains shown)
VH: B1 VH with L100Q
VL: B4 VL with Q89D
notes: also called Clone BA399-01; BA399_01
B14: BA399_CPS_06 (antibody, V domains shown)
VH: B1 VH with A33S, T58H, L100Q
VL: B4 VL with S24Y, S51L, Q89D
notes: also called Clone BA399-06; BA399_06

Target: T1, human IL-6 (Interleukin-6) (human, UniProt P05231 30-212)
T1 construct: also called 001 IL-6 antigen
Test: Biacore (SPR), antibody captured on anti-human Fc, IL-6 as analyte

Row | Kd [pM] | koff [s⁻¹] | kon [M⁻¹ s⁻¹] | Molecule
1 | 39.6 | 5.88e-05 | 1.48e+06 | B1
2 | 50.5 | 6.59e-05 | 1.31e+06 | B2
3 | 236 | 0.000237 | 1.01e+06 | B3
4 | 127 | 0.000158 | 1.25e+06 | B4
5 | 86.5 | 6.44e-05 | 745000 | B5
6 | 40 | 5.76e-05 | 1.44e+06 | B6

Target: T1, human IL-6 (Interleukin-6)
Test: as above
Remark: another data set of the same source

Row | Ka [M⁻¹] | Kd [pM] | koff [s⁻¹] | kon [M⁻¹ s⁻¹] | Molecule
7 | 1.28e+13 | 0.0783 | 5.07e-08 | 648000 | B7
8 | 8.14e+13 | 0.0123 | 9.11e-09 | 742000 | B8
9 | 3.52e+10 | 28.4 | 2.86e-05 | 1.01e+06 | B9
10 | 3.52e+12 | 0.284 | 1.82e-07 | 643000 | B10

Target: T1, human IL-6 (Interleukin-6)
Test: specific activity: affinity ELISA on IL-6 divided by quantitation ELISA, normalized to BA399 = 1
Procedure: 200 μl washing solution (0.05% Tween-20 in PBS) was added and shaken at 200 RPM for 5 min at room temperature. The plates were emptied and residual liquid tapped out on paper towels. 200 μl blocking solution (2% Carnation milk in PBS) was added and shaken at 200 RPM for one hour at room temperature. Plates were emptied and residual liquid tapped out on paper towels. 100 μl of diluted samples for ELISA was used. The samples were shaken at 200 RPM for one hour at room temperature; plates emptied and residual liquid tapped out on paper towels. 200 μl washing solution (0.05% Tween-20 in PBS) was added, shaken at 200 RPM for 5 min at room temperature; plates emptied and residual liquid tapped out on paper towels. This process was repeated three times. 100 μl of 1:2500 dilution of anti-human IgG conjugated with HRP diluted in block solution (2% Carnation milk in PBS) was added for 001 samples. 100 μl of 1:2500 dilution of anti-rabbit IgG conjugated with HRP diluted in block solution (2% Carnation milk in PBS) was added for control antibody. The contents were shaken at 200 RPM for one hour at room temperature, plates emptied and residue liquid tapped out on paper towels. 200 μl washing solution (0.05% Tween-20 in PBS) was added, shaken at 200 RPM for 5 min at room temperature; plates emptied and residual liquid tapped out on paper towels. This process was repeated three times. 100 μl TMB substrate solution was added, and incubated at room temperature. The reaction was stopped with 1 N HCl, and the plate read at 450 nm.
This ELISA was used for determining the expression level of antibodies in cell culture supernatant. […] Covered with plate sealer and incubated at 4° C. overnight. Emptied plate and tapped out residual liquid on paper towels. Added 200 μl washing solution (0.05% Tween-20 in PBS). Shaken at 200 RPM for 5 min at room temperature. Emptied plate and tapped out residual liquid on paper towels. Added 200 μl blocking solution (2% Carnation milk in PBS). Shaken at 200 RPM for one hour at room temperature. Emptied plate and tapped out residual liquid on paper towels. Used 100 μl of diluted sample for ELISA. 20 ng/ml of human IgG and 1:2 dilution thereafter was used for standards.

Row | binding result | Molecule
11 | binds | B11
12 | binds | B12
13 | binds | B13
14 | binds | B14

Target: T1, human IL-6 (Interleukin-6)
Test: Sapidyne KinExA kinetic exclusion assay on IL-6; Kd Range (95% Confidence Interval) printed: 5.66pM to 3.28pM
Target sequence in this assay (P05231 30-212 limits assumed): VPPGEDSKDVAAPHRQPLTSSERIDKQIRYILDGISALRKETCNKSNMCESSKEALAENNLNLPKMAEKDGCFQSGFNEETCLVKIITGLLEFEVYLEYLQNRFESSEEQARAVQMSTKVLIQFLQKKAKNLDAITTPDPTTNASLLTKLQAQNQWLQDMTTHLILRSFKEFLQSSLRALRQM

Row | Kd [pM] | Molecule
15 | 4.37 | Anti-IL-6 Mab BA003 (CNTO136) (antibody)
